Test results: publication PMC4877109, “Structure of the Cellulose Synthase Complex of Gluconacetobacter hansenii at 23.4 Å Resolution” (PLoS ONE, 2016)

B1: AcsAB complex (AcsA + AcsB, cellulose synthase) (Novacetimonas hansenii) (protein)
chain: MPEVRSSTQSESGMSQWMGKILSIRGAGLIIGVFGLCALIAATSVTLPPEQQLIVAFVCVVIFFIVGHKPSRRSQIFLEVLSGLVSLRYLTWRLTETLSFDTWLQGLLGTMLLVAELYALMMLFLSYFQTIAPLHRAPLPLPPNPDEWPTVDIFVPTYNEELSIVRLTVLGSLGIDWPPEKVRVHILDDGRRPEFAAFAAECGANYIARPTNEHAKAGNLNYAIGHTDGDYILIFDCDHVPTRAFLQLTMGWMVEDPKIALMQTPHHFYSPDPFQRNLSAGYRTPPEGNLFYGVVQDGNDFWDATFFCGSCAILRRTAIEQIGGFATQTVTEDAHTALKMQRLGWSTAYLRIPLAGGLATERLILHIGQRVRWARGMLQIFRIDNPLFGRGLSWGQRLCYLSAMTSFLFAVPRVIFLSSPLAFLFFGQNIIAASPLALLAYAIPHMFHAVGTASKINKGWRYSFWSEVYETTMALFLVRVTIVTLLSPSRGKFNVTDKGGLLEKGYFDLGAVYPNIILGLIMFGGLARGVYELSFGHLDQIAERAYLLNSAWAMLSLIIILAAIAVGRETQQKRNSHRIPATIPVEVANADGSIIVTGVTEDLSMGGAAVKMSWPAKLSGPTPVYIRTVLDGEELILPARIIRAGNGRGIFIWTIDNLQQEFSVIRLVFGRADAWVDWGNYKADRPLLSLMDMVLSVKGLFRSSGDIVHRSSPTKPSAGNALSDDTNNPSRKERVLKGTVK
notes: acsAB fusion polypeptide with N-terminal His12 tag, processed in vivo into AcsA (83 kDa) and AcsB (93 kDa); homologous expression in G. hansenii (pUCD2CDHisAcsAB with acsCD); LFCE14 detergent, Co-NTA and size exclusion; ~180 kDa monomeric complex

What was measured:
[1] = target: T1, AcsAB complex (AcsA + AcsB, cellulose synthase) (Novacetimonas hansenii, UniProt Q76KJ8); test: UDP-14C-glucose incorporation with and without c-di-GMP; format: biochemical; settings: allosteric activator (30 μM); 20 mM MgCl2, 2 mM UDP-glucose, pH 7.5, 30 °C
T1 construct: acsAB fusion polypeptide with N-terminal His12 tag, processed in vivo into AcsA (83 kDa) and AcsB (93 kDa); homologous expression in G. hansenii (pUCD2CDHisAcsAB with acsCD); LFCE14 detergent, Co-NTA and size exclusion; ~180 kDa monomeric complex
T1 sequence (Q76KJ8 742-1550, one chain of several): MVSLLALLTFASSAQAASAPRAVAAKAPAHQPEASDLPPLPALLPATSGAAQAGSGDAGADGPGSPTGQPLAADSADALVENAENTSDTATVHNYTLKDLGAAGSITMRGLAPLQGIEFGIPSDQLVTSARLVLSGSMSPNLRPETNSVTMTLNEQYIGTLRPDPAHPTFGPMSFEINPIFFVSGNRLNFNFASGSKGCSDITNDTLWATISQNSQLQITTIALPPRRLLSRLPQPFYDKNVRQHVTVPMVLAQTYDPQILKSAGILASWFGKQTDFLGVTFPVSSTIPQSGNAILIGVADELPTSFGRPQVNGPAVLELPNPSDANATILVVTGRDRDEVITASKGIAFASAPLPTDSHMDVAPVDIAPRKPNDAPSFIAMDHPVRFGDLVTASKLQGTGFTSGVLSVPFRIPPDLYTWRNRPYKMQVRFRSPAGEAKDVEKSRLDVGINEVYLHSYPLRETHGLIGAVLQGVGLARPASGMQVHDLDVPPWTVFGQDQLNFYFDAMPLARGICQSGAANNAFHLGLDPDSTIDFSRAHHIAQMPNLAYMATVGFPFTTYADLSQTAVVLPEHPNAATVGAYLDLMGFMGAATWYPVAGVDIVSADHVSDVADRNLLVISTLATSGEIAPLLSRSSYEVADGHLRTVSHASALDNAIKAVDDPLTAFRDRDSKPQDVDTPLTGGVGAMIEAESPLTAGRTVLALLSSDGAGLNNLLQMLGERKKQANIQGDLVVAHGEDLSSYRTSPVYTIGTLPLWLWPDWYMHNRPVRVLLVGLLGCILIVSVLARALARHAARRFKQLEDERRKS

[2] = substrate: O=c1ccn([C@@H]2O[C@H](CO[P@@](=O)(O)O[P@@](=O)(O)O[C@H]3O[C@H](CO)[C@@H](O)[C@H](O)[C@H]3O)[C@@H](O)[C@H]2O)c(=O)[nH]1; test: UDP-14C-glucose incorporation into insoluble glucan, scintillation counting, Michaelis-Menten fit; format: biochemical, Novacetimonas hansenii; settings: Mg2+ 20 mM, 30 μM c-di-GMP, 5 mM cellobiose, 20 mM Tris-HCl pH 7.5, 100 mM NaCl, 30 °C, LFCE14 detergent-purified complex, labelled compound as tracer

| Molecule | UDP-14C-glucose incorporation with and without c-di-GMP [1] | Km [2] | kcat [2] |
| --- | --- | --- | --- |
| Nc1nc2c(ncn2[C@@H]2O[C@@H]3COP(=O)(O)O[C@H]4[C@@H](O)[C@H](n5cnc6c(=O)[nH]c(N)nc65)O[C@@H]4COP(=O)(O)O[C@H]3[C@H]2O)c(=O)[nH]1 [c-di-GMP] | when c-di-GMP was omitted, the protein was not able to catalyze label incorporation into cellulose | – | – |
| B1 | – | 0.12 (± 0.03) mM | 2.9 molecules per complex per second |
